Measured values taken from patent US9844563B2, “Compositions, kits, and methods to induce acquired cytoresistance using stress protein inducers” (FRED HUTCHINSON CANCER RESEARCH CENTER, priority 2014, dated 2017).
Where “and” joins values, the source holds several entries; their conditions need not be identical. Equal values may be shown once.

How the values were obtained:
[1] = tested on: HK-2 cells; assay: HK-2 cell injury by MTT assay; assay type: cell-based; conditions: 10 mg/mL, 18 hr incubation, compared to control incubated cells
Procedure: HK-2 cells (a proximal tubule cell line derived from normal human kidney) were incubated in keratinocyte serum free medium either under normal (control) conditions or in the presence of 10 mg/mL horse skeletal muscle myoglobin or nitrited myoglobin (produced by equimolar Na nitrite addition to 10 mg/ml myoglobin). After 18 hr incubations, the severity of cell injury (% cell death) was assessed by MTT assay. Myoglobin induced 40% cell death (40% decrease in MTT cell uptake), compared to control incubated cells. Nitrite binding to myoglobin reduced cell death by 75%. Thus, nitrite binding is able to reduce myoglobin's cytotoxic effects.

[2] = tested on: HO-1; assay: Renal cortical HO-1 protein (ELISA) after IV myoglobin, SnPP or both; assay type: in vivo, mice; conditions: 1 mg Myoglobin, 1 μmole SnPP
From the text: (§1) The Glycerol Model of AKI. This is a widely used model of rhabdomyolysis-induced AKI that has been employed worldwide for 50 years. The model was used to test whether prophylactic interventions confer protection against AKI. Basically, the protocol is as follows: Male CD-1 mice (35-45 grams), obtained from Charles River Laboratories, Wilmington, Mass. were studied. Mice were maintained under standard vivarium conditions and generally housed for 1-3 weeks prior to study. The mice were placed in a cylindrical restraining cage, and then were given a tail vein injection of the test substances (see below) or test substance vehicle. The mice were then returned to their cages. Eighteen hours (hrs) later, the mice were briefly anesthetized by isoflurane inhalation, and given an intramuscular injection of hypertonic (50%) glycerol in a dose of 9 ml/Kg body weight. The dose is divided in two, with half injected into the muscle of each of the hind limbs. The mice were then returned to their cages. Eighteen hrs later, the mice were deeply anesthetized with pentobarbital (50-100 mg/Kg), the abdominal cavity was opened through a midline abdominal incision, a blood sample was obtained from the abdominal vena cava and the kidneys were resected. A kidney cross section was obtained and fixed in formalin for subsequent histologic analysis. The terminal blood samples were analyzed for BUN and creatinine, using commercially available assay kits. The remaining kidney tissue was subjected to cortical dissection, and the cortical tissues were then extracted for protein and RNA. The protein samples were saved for analysis of HO-1 levels, and the RNA samples were subjected to RT-PCR to quantify HO-1 mRNA as well as levels of other stress gene mRNAs (e.g. NGAL, haptoglobin, hemopexin, hepicidin).
(§2) Myoglobin+SnPP: To 5 mg of dry myoglobin was added 0.9 ml of PBS+0.1 ml of a stock SnPP solution (50 umole/ml). The resulting final concentrations were 5 mg/ml myoglobin+5 umoles/ml of SnPP. The tail vein was injected with 200 ul of this solution, which equals 1 mg myoglobin+1 umole SnPP. […]
Four hr post myoglobin vs myoglobin+SnPP vs SnPP alone experiments. To confirm that the myoglobin+SnPP has a synergistic effect in inducing HO-1 mRNA and HO-1 protein levels, each of the above combinations have been administered alone via tail vein injection. […] For additional information regarding methods, see Zager et al., Am J Physiol Renal Physiol. 2014 Jul. 30. Pii.

[3] = parameters: species or system mice; conditions: mouse, in vivo, iv
[4] = tested on: Haptoglobin; assay: Haptoglobin protein expression after SQ myoglobin with or without PEG; assay type: in vivo, mice; conditions: 4 hour time point after SQ injection
Procedure: Myoglobin+PEG: To a stock solution of 20 mg/ml Mgb in PBS was added 100 mg/ml of PEG-6000; […]. This was administered as a subcutaneous injection in the dorsal neck (250 ul total injection). For combined Mgb/PEG+SnPP, SnPP was added to the above in a concentration of 3 mg/ml.

[5] = tested on: HO-1 mRNA; assay: Renal cortical HO-1 mRNA (RT-PCR) after IV myoglobin, SnPP or both; assay type: in vivo, mice
From the text: as §1, §2
Four hr post myoglobin vs myoglobin+SnPP vs SnPP alone experiments. To confirm that the myoglobin+SnPP has a synergistic effect in inducing HO-1 mRNA and HO-1 protein levels, each of the above combinations have been administered alone via tail vein injection. Four hrs later, the mice were sacrificed as noted above and the kidneys were harvested for assessment of HO-1 mRNA and protein levels. For additional information regarding methods, see Zager et al., Am J Physiol Renal Physiol. 2014 Jul. 30. Pii.

B1: myoglobin (protein, listed as Homo Sapiens)
chain: MGLSDGEWQLVLNVWGKVEADIPGHGQEVLIRLFKGHPETLEKFDKFKHLKSEDEMKASEDLKKHGATVLTALGGILKKKGHHEAEIKPLAQSHATKHKIPVKYLEFISECIIQVLQSKHPGDFGADAQGAMNKALELFRKDMASNYKELGFQG
notes: Lyophilized horse skeletal muscle myoglobin (Sigma Chemicals) used as the test agent
cell death (decrease in MTT cell uptake) [1]: 40%
HO-1 Protein Expression (by ELISA), Average ([2]; Cortex, 4 hr IV, average): 45.4 ng HO-1/mg protein
HO-1 Protein Expression (by ELISA), individual mice ([2]; Cortex, 4 hr IV, single animals): 36.0 ng HO-1/mg protein and 40.7 ng HO-1/mg protein and 40.2 ng HO-1/mg protein and 64.7 ng HO-1/mg protein
HO-1 protein induction overnight post injection, Average ([2]; Ovnt (roughly 18 hrs) IV, average, in ng/mg protein): 36.7
HO-1 protein induction overnight post injection, individual subjects ([2]; Ovnt (roughly 18 hrs) IV, single animals, in ng/mg protein): 50.6 and 34.9 and 24.6
Plasma LDH, Average [3]: 4.47 Absorbance U LDH/ml
Haptoglobin Protein Expression [4]: 32.7 ± 6.3 ng/mg protein
HO-1 mRNA induction (HO-1/GAPDH mRNA), Average ([5]; 4 hrs post IV injection, average): 3.93 HO-1/GAPDH mRNA
HO-1 mRNA induction (HO-1/GAPDH mRNA), individual mice ([5]; 4 hrs post IV injection, single animals): 7.78 HO-1/GAPDH mRNA and 2.93 HO-1/GAPDH mRNA and 2.58 HO-1/GAPDH mRNA and 2.41 HO-1/GAPDH mRNA
HO-1 mRNA induction overnight post injection, Average ([5]; Ovnt (roughly 18 hrs) IV, 1 mg Myoglobin, 1 μmole SnPP, average): 0.58 HO-1/GAPDH mRNA
HO-1 mRNA induction overnight post injection, individual subjects ([5]; Ovnt (roughly 18 hrs) IV, 1 mg Myoglobin, 1 μmole SnPP, single animals): 0.71 HO-1/GAPDH mRNA and 0.53 HO-1/GAPDH mRNA and 0.51 HO-1/GAPDH mRNA
